Consider one molecule from patent publication US20110076265A1 (POMONA RICERCA S R L, published 2011).

The target of this test is T1, HA protein (H1-subtype hemagglutinin) of influenza A virus A/California/04/2009 (influenza A virus A/California/04/2009 …, UniProt P26140 18-566).
T1 construct: also called H1 HA (A/California/04/2009)
Nature of the test: FACS on fixed HEK 293T cells transfected with HA construct, Fab49 at 10 µg/ml.

B1: Fab49 (human monoclonal Fab fragment produced by bacterial clone INF49) (Fab, V domains shown)
VH: LESGGGLVQPGGSLRLSCAASGITFSSYAMSWVRQAPGKGLEWVSTVNSGGGSTYYGDSVRGRFTISRDNSKSTLYLQLNSLRAEDTAIYYCAKDKGRPIFGLVTPSYYMDVWGNGT
VL: ELTQSPSSLSASVGDSVTITCRTSERISTYLNWYQQKPGKAPRLLVSGASTLQGGVPSRFSGSGSGTAFTLTINSLQPEDFATYYCQQSYSTPLTFGGGT
As for B1, the binding result is listed as “binds”.
